Experimental data as given in patent US20240277803A1, “NME INHIBITORS AND METHODS OF USING NME INHIBITORS” (Minerva Biotechnologies Corporation, priority 2013, published 2024).
Read-outs that look alike come from different tables or passages of the source.

Legend:
[1] = target: T1, PSMGFR peptide of the MUC1* extracellular domain (Homo sapiens, UniProt P15941); assay: SPR and nanoparticle binding of NME1 multimers to PSMGFR peptide (FIG. 17); design: the PSMGFR peptide of the MUC1* extracellular domain is immobilized on the chip; settings: for binding to MUC1* extracellular domain peptide (PSMGFR): SPR chip or gold nanoparticles
T1 sequence (P15941 1110-1154 limits assumed): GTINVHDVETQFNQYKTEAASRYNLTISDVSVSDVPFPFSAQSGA
Excerpt: MUC1* extra cellular domain peptide was immobilized onto gold nanoparticles.
(§1) By contrast, NME1 is roughly half the molecular weight of NME7 (˜17 kDa) and has only one NDPK domain. NME1 acts as a growth factor that promotes growth and inhibits differentiation only when it is a dimer. At higher concentrations, NME1 can form hexamers. […] Thus, NME1, which is expressed later in embryogenesis, has the ability to turn itself off, thus limiting self-replication, while NME7 cannot. Wild type (wt) NME1 exists primarily as a hexamer at measurable concentrations. Mutant NME1 proteins, such as S120G that form stable dimer populations have been isolated from cancers and thus are continuously activating the MUC1* receptor. We made recombinant NME1-wt, and the S120G mutant. By varying refolding protocols we were able to stabilize populations that were essentially 100% hexamer or 100% dimer. In addition we isolated populations of NME1-S120G that were a mixture of dimer, tetramer and hexamer. […] In nature, when the concentration of stem cells reaches critical mass and their secretions of NME1 reaches the concentration at which they form hexamers, differentiation is induced. FIG. 18 is a cartoon depicting the mechanism, supported by experiments described herein, by which NME7 and NME1 function to promote pluripotency wherein NME1 regulates itself.

Human stem cells (iPS) = assay: human iPS stem cell culture in NME7-AB or NM23-H1 dimers; type: cell-based; settings: 8 nM in minimal media over MN-C3 surface
Protocol: Testing recombinant NME7 for ability to maintain pluripotency and inhibit differentiation. A soluble variant of NME7, NME7-AB, was generated and purified. Human stem cells (iPS cat #SC101a-1, System Biosciences) were grown per the manufacturer's directions in 4 ng/ml bFGF over a layer of mouse fibroblast feeder cells for four passages. These source stem cells were then plated into 6-well cell culture plates (Vita™, Thermo Fisher) that had been coated with 12.5 ug/well of a monoclonal anti-MUC1* antibody, MN-C3. Cells were plated at a density of 300,000 cells per well. The base media was Minimal Stem Cell Media consisting of: 400 ml DME/F12/GlutaMAX I (Invitrogen #10565-018), 100 ml Knockout Serum Replacement (KO-SR, Invitrogen #10828-028), 5 ml 100×MEM Non-essential Amino Acid Solution (Invitrogen#11140-050) and 0.9 ml (0.1 mM) β-mercaptoethanol (55 mM stock, Invitrogen #21985-023). The base media can be any media. In a preferred embodiment, the base media is free of other growth factors and cytokines. To the base media was added either 8 nM of NME7-AB or 8 nM NM23-H1 refolded and purified as stable dimers. Media was changed every 48 hours and due to accelerated growth had to be harvested and passaged at Day 3 post-plating. FIGS. 9 and 10 document the day by day comparison of growth in NM23-H1 dimers to growth in NME7 monomers. […] Cell counts at the first harvest verified that culture in NME7 produced 1.4-times more cells than culture in NM23-H1 dimers.

human stem cells = assay: human stem cell culture in NME1 dimers or hexamers (FIG. 17D-G); type: cell-based
Excerpt: as §1

[2] = target: T2, MUC1* extra cellular domain peptide (Homo sapiens, UniProt P15941); assay: gold nanoparticle binding assay, NME7 and MUC1* peptide (FIG. 7); settings: protein added free in solution
T2 sequence (P15941 with tags, fused parts or gaps): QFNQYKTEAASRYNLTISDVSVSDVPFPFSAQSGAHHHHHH
Protocol: Gold nanoparticles of a diameter of 30.0 nm were coated with an NTA-SAM surface according to Thompson et al. (ACS Appl. Mater. Interfaces, 2011, 3 (8), pp 2979-2987). The NTA-SAM coated gold nanoparticles were then activated with an equal volume of 180 uM NiSO4, incubated for 10 min at room temperature, washed, and resuspended in a 10 mM phosphate buffer ([…]). The gold nanoparticles were then loaded with PSMGER N-10 peptide ([…] (SEQ ID NO:155)) at 0.5 uM final concentration, and incubated at room temperature for 10 min. Recombinant NME7-AB protein expressed and purified from E. coli was added free in solution at the concentrations indicated. When particle-immobilized proteins bind to each other, or simultaneously bind to two different peptides on two different particles, the particle solution color changes from pink/red to purple/blue. If the protein added free in solution causes particle aggregation, it is strong evidence that the free protein dimerizes the cognate peptide, since binding to a single peptide would not induce two or more particles to be brought into close proximity to each other.
The NME7-AB is added free in solution at the concentrations indicated. Solution color change from pink to purple/blue from particle aggregation indicates binding between the MUC1* peptide on the particles and NME7 free in solution. […] Particle aggregation, indicating NME7 can simultaneously bind to two peptides is observed. […] The T47D breast cancer cell line Lysate, which contains native NME7 turns noticeably purple also.

[3] = target: T1, PSMGFR peptide of the MUC1* extracellular domain; assay: ELISA of NME6 binding to PSMGFR peptide (FIG. 19)
Excerpt: NME6 is also expressed in very early embryogenesis. NME6 is reportedly a dimer in some species such as sea sponge. NME6 must be expressed at high enough levels that it can form dimers before it can activate growth and inhibit differentiation. Thus, it is expressed at a later stage than NME7. […] We made recombinant NME6 as the wild type protein, or with a single point mutation S139G, which mimics the S120G mutation that causes NME1 to prefer dimer formation. In addition, another NME6 variant was made so that in this sensitive area, the human NME6 would look like sea sponge NME6, which reportedly exists as a dimer. These mutations are S139A plus V142D and V143A. […] In part A, NME6-wt is purified as the monomer or as a high molecular weight multimer. […] In part B, the NME6 multimers are dissociated by dilution in SDS. […] The gels of FIG. 19 D-H show expression of NME6-wt (D), NME6 with the S139G mutation that corresponds to the mutation S120G which in human NME1 increases dimer formation (E), NME6 bearing three mutations that make the human form mimic the sea sponge form that is reported to be a dimer (F), and a single chain protein linking two NME6 proteins (G,H). […] Thus an effective anti-cancer agent would be an antibody, small molecule or other agent that disrupts binding of NME6 dimers to MUC1* extra cellular domain peptide. […]

binding to MUC1* extracellular domain peptide (PSMGFR) ([1]; listed as NM23 dimers) | binding to MUC1* extracellular domain peptide (PSMGFR) ([1]; listed as dimer form of NME1) | binding to PSMGFR peptide (ELISA) [3] | binding to PSMGFR peptide (ELISA) ([3]; listed as NME6 monomer) | Substance | binding to N-10 version of the PSMGFR peptide ([1]; first 10 amino acids of PSMGFR omitted) | stem cell growth, pluripotency and differentiation (Human stem cells (iPS)) | pluripotent stem cell growth / differentiation (human stem cells) | binding to MUC1* peptide on nanoparticles (color change pink to purple/blue) [2]
bind to the cognate receptor MUC1* | binds to the MUC1* extracellular domain |  |  | NME1 dimers: recombinant NME1 (NM23-H1) S120G mutant refolded and purified as stable dimers | bind to the N-10 version of the PSMGFR peptide | no differentiation | promote pluripotent stem cell growth | began to change almost immediately to purple
 |  |  |  | NME1 hexamers: recombinant NME1 in hexamer form |  |  | induce differentiation | 
 |  | binds to the PSMGFR peptide | preferential binding | NME6: recombinant human NME6 wild type protein |  |  |  | 
